# Reference: paper PMC9249852, “Transcription factor paralogs orchestrate alternative gene regulatory networks by context-dependent cooperation with multiple cofactors”
# Assays:
# Settings in all cases: protein: recombinant;recombinant; tags: N-terminal 6xHis (pQE30) and EGFP with TEV linker; C-terminal FLAG;N-terminal T7; C-terminal 6xHis; copies: 1;1; label: 5' biotin on strand 2 (SR1 primer); blunt
# [1] = molecular target: T1, EGFP-Scr-FLAG;T7-Dll-His (Drosophila melanogaster?;Drosophila …, UniProt P09077;P20009 1-417;1-327, |); assay: biotin-DNA pull-down, anti-FLAG western; Dll enhances Scr binding; Dll on DNA not probed; Pull-down in 1 ml: 500 ul protein in dialysis buffer (20 mM HEPES pH 8.0, 200 mM NaCl, 10% glycerol, 2 mM MgCl2, 0.05% Tween-20) + 500 ul probe mix with 200 ul
# [2] = molecular target: T1, EGFP-Scr-FLAG;T7-Dll-His; assay: biotin-DNA pull-down, anti-FLAG western; Dll assists Scr binding; Dll on DNA not probed; Pull-down in 1 ml: 500 ul protein in dialysis buffer (20 mM HEPES pH 8.0, 200 mM NaCl, 10% glycerol, 2 mM MgCl2, 0.05% Tween-20) + 500 ul probe mix with 200 ul
# [3] = molecular target: T1, EGFP-Scr-FLAG;T7-Dll-His; assay: biotin-DNA pull-down, anti-FLAG western; Dll increases Scr binding, concentration-dependent; Dll on DNA not probed; Pull-down in 1 ml: 500 ul protein in dialysis buffer (20 mM HEPES pH 8.0, 200 mM NaCl, 10% glycerol, 2 mM MgCl2, 0.05% Tween-20) + 500 ul probe mix with 200 ul
# T1 sequence (P09077 whole entry, chain 1 of 2): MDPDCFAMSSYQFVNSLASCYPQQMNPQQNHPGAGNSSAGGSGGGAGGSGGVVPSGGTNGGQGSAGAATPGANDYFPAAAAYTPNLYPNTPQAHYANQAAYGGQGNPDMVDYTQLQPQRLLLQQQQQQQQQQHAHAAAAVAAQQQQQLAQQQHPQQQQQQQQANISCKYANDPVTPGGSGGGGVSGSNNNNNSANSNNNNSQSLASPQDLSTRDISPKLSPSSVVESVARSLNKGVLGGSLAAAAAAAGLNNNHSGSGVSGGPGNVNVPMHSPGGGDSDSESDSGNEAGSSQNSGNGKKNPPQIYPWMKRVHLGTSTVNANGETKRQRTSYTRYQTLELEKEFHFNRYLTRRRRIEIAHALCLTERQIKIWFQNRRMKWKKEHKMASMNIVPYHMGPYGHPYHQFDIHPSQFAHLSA
# T1 sequence (P20009 whole entry, chain 2 of 2): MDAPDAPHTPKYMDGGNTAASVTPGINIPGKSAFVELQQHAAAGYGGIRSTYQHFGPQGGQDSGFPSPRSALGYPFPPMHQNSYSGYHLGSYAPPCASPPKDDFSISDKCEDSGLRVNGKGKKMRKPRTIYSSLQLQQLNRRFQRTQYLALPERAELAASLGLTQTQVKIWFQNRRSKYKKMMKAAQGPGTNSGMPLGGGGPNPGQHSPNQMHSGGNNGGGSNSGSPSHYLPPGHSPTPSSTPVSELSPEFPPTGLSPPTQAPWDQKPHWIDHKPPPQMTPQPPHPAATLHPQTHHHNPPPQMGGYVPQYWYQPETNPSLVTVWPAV
binder,measurement,setting,value
probe-dsx (dsx-1) (dsDNA) DNA 1: AATATTTTATAAATTTAATAAATTGAGTCGTATGCCGTCTTCTGCTTG DNA 2: CAAGCAGAAGACGGCATACGACTCAATTTATTAAATTTATAAAATATT,binding result,[1],binds
probe-dpy (dpy-1) (dsDNA) DNA 1: ATCGTTAAATTACCGCAATTTGCATGTTCGTATGCCGTCTTCTGCTTG DNA 2: CAAGCAGAAGACGGCATACGAACATGCAAATTGCGGTAATTTAACGAT,binding result,[2],binds
probe-Scr-Dll consensus (dsDNA) DNA 1: TGGGCCTGGTAATTAATTTAATTATCCAGGTCGTATGCCGTCTTCTGCTTG DNA 2: CAAGCAGAAGACGGCATACGACCTGGATAATTAAATTAATTACCAGGCCCA,binding result,[3],binds
